Bridge positions count the residues as written; N and C are the ends. Square brackets hold non-standard residues; d marks the D form. Ends that are not written are not given here. Peptide text beside a SMILES is read from it. * marks the point of attachment. 5FAM = O=C1OC2(c3ccc(O)cc3Oc3cc(O)ccc32)c2ccc(C(=O)*)cc21; Biotin = O=C1N[C@H]2[C@H](CS[C@H]2CCCCC(=O)*)N1; Hyp = O=C(O)[C@@H]1C[C@@H](O)CN1; Nle = CCCC[C@H](N)C(=O)O; Aib = CC(C)(N)C(=O)O

Assay [1] has as its system LRP1 cluster 4-Fc chimeric proteins. The experiment in a line: Competitive binding assay by ELISA against Sequence 46. Conditions: peptide 2,000 nM versus Sequence 46 (500 nM); time point not stated. As for the experimental part:
For comparison between the peptide of Sequence 1 with amino acid substitutions and the peptide of Sequence 2 in terms of the LRP1 binding activity and the resistance to protease degradation, a competitive binding assay by ELISA shown in FIG. 2 was constructed. Immediately (zero hour) or 24 hours after the mixing of the peptide of Sequence 2 or the amino acid-substituted peptide with mouse plasma at 37°C, the mixture was diluted to sufficiently lower the plasma concentration to any desired final concentration, and mixed with Sequence 46 (500 nM). This mixture was subjected to the competitive binding assay described above. The binding of Sequence 46 to the LRP1 cluster 4-Fc chimera proteins competes with the binding of Sequence 2 or the amino acid-substituted peptide to the LRP1 cluster 4-Fc chimera proteins, and thus is inhibited depending on the concentration of Sequence 2 or the amino acid-substituted peptide. That is, the binding activity of Sequence 2 or the amino acid-substituted peptide to the LRP1 cluster 4-Fc chimera proteins is detected as competitive inhibitory activity against the binding of Sequence 46. Regarding the binding value of Sequence 46 to the wells in which the LRP1 cluster 4-Fc chimeric proteins were not captured as 100% inhibitory activity and the binding value of Sequence 46 to the wells in which Sequence 2 or the amino acid-substituted peptide was not added as 0% inhibitory activity, the inhibitory activity values of Sequence 2 and the amino acid-substituted peptide were calculated in %.
Sequence 2 incubated with plasma for zero hour inhibited the binding of Sequence 46 in a concentration-dependent manner. […] However, the binding of Sequence 46 (500 nM) in wells loaded with 2,000 nM equivalent Sequence 2 averaged 50.6%.
Immediately or 24 hours after Sequences 1 to 44 were mixed with mouse plasma at 37°C, the mixtures were diluted to sufficiently lower the plasma concentration to a final concentration of 2,000 nM, and mixed with Sequence 46 (500 nM). The obtained mixtures were subjected to the above-described competitive binding assay. […] Other sequences tended to have diminished inhibitory activities.

In assay [2] the target is LRP1 cluster 4-Fc chimeric proteins (UniProt Q07954). The experiment in a line: ELISA, LRP1 cluster 4-Fc captured, biotin peptide detected with SA-HRP.
Assay [3] shares this target. In words: competitive ELISA, LRP1 cluster 4-Fc captured; peptide 2,000 nM against biotin-Sequence 46 500 nM.

UniProt Q07954, sequence (Q07954 3293-3783, stated change not applied): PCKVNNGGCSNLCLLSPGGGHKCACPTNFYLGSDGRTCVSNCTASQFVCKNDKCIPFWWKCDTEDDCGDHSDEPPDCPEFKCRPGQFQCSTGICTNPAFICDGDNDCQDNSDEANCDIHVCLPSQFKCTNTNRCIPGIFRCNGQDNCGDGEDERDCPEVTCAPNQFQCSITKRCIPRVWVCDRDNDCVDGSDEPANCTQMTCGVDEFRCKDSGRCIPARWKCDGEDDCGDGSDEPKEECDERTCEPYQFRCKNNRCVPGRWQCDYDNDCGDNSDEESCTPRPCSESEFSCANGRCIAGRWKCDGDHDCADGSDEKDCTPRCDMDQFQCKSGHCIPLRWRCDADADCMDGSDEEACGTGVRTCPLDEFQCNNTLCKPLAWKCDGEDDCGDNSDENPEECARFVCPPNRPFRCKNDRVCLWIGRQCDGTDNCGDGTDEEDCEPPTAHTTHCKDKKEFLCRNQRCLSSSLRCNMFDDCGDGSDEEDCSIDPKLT

In assay [1], `CCCC[C@@H]1NC(=O)[C@H](CCC(=O)O)NC(=O)[C@H](C)NC(=O)[C@H](CC(C)C)NC(=O)[C@H](CCCC)NC(=O)[C@H](Cc2ccc(O)cc2)NC(=O)[C@H](CCCCN)NC(=O)[C@H](Cc2ccc(O)cc2)NC(=O)[C@H]([C@@H](C)O)NC(=O)[C@H](NC(=O)[C@@H]2CCCN2C(=O)[C@@H](NC(=O)CNC(=O)[C@H](CCCCNC(=O)c2ccc3c(c2)C(=O)OC32c3ccc(O)cc3Oc3cc(O)ccc32)NC(C)=O)[C@@H](C)O)CSSC[C@@H](C(=O)O)NC1=O` [Sequence 6, Ac-Lys(5FAM)-Gly-Thr-Pro-c(^DCys-Thr-Tyr-Lys-Tyr-Nle-Leu-Ala-Glu-Nle-Cys)-OH] (Ac-K(5FAM)GTP[dC]TYKY[Nle]LAE[Nle]C-OH; disulfide 5-15) registered an inhibitory activity of 91.9%. The same measure, in the same setting: under `CCCC[C@@H]1NC(=O)[C@H](CCC(=O)O)NC(=O)[C@H](C)NC(=O)[C@H](CC(C)C)NC(=O)[C@H](CCCC)NC(=O)[C@H](Cc2ccc(O)cc2)NC(=O)[C@H](CCCNC(=N)N)NC(=O)[C@H](Cc2ccc(O)cc2)NC(=O)[C@H]([C@@H](C)O)NC(=O)[C@@H](NC(=O)[C@@H]2CCCN2C(=O)[C@@H](NC(=O)CNC(=O)[C@H](CCCCNC(=O)c2ccc3c(c2)C(=O)OC32c3ccc(O)cc3Oc3cc(O)ccc32)NC(C)=O)[C@@H](C)O)CSSC[C@@H](C(=O)O)NC1=O` [Sequence 24, Ac-Lys(5FAM)-Gly-Thr-Pro-c(Cys-Thr-Tyr-Arg-Tyr-Nle-Leu-Ala-Glu-Nle-Cys)-OH] (Ac-K(5FAM)GTPCTYRY[Nle]LAE[Nle]C-OH; disulfide 5-15) stands 77.4%; under `CCCC[C@@H]1NC(=O)[C@H](CCC(=O)O)NC(=O)C(C)(C)NC(=O)[C@H](CC(C)C)NC(=O)[C@H](CCCC)NC(=O)[C@H](Cc2ccc(O)cc2)NC(=O)[C@H](CCCCN)NC(=O)[C@H](Cc2ccc(O)cc2)NC(=O)[C@H]([C@@H](C)O)NC(=O)[C@@H](NC(=O)[C@@H]2CCCN2C(=O)[C@@H](NC(=O)CNC(=O)[C@H](CCCCNC(=O)c2ccc3c(c2)C(=O)OC32c3ccc(O)cc3Oc3cc(O)ccc32)NC(C)=O)[C@@H](C)O)CSSC[C@@H](C(=O)O)NC1=O` [Sequence 34, Ac-Lys(5FAM)-Gly-Thr-Pro-c(Cys-Thr-Tyr-Lys-Tyr-Nle-Leu-Aib-Glu-Nle-Cys)-OH] (Ac-K(5FAM)GTPCTYKY[Nle]L[Aib]E[Nle]C-OH; disulfide 5-15), 82.0%; under `CCCC[C@@H]1NC(=O)[C@H](Cc2ccc(O)cc2)NC(=O)[C@H](CCCCN)NC(=O)[C@H](Cc2ccc(O)cc2)NC(=O)[C@H]([C@@H](C)O)NC(=O)[C@@H](NC(=O)[C@@H]2CCCN2C(=O)[C@@H](NC(=O)CNC(=O)[C@H](CCCCNC(=O)c2ccc3c(c2)C(=O)OC32c3ccc(O)cc3Oc3cc(O)ccc32)NC(C)=O)[C@@H](C)O)CSSC[C@@H](C(=O)O)NC(=O)[C@@H]2CCCN2C(=O)[C@H](CCCC)NC(=O)[C@H](CCC(=O)O)NC(=O)[C@H](C)NC(=O)[C@H](CC(C)C)NC1=O` [Sequence 43, Ac-Lys(5FAM)-Gly-Thr-Pro-c(Cys-Thr-Tyr-Lys-Tyr-Nle-Leu-Ala-Glu-Nle-Pro-Cys)-OH] (Ac-K(5FAM)GTPCTYKY[Nle]LAE[Nle]PC-OH; disulfide 5-16), 83.5%. The same measure, in the same setting: as for “Ac-Lys(5FAM)-Gly-Thr-Pro-Cys-Thr-Tyr-Lys-Tyr-Nle-Leu-Ala-Glu-Nle-Cys)-OH (Ac-K(5FAM)GTPCTYKY[Nle]LAE[Nle]C-OH; not fully specified (bridges); printed as Ac-Lys(5FAM)-Gly-Thr-Pro-Cys-Thr-Tyr-Lys-Tyr-Nle-Leu-Ala-Glu-Nle-Cys)-OH; also: cyclic, bridge type not given here) [Sequence 1]”, the figure is 70.7%; as for “Ac-Lys(5FAM)-Gly-Thr-Pro-Cys-Thr-Tyr-Lys-Tyr-Nle-Leu-Ala-Glu-Nle-^DCys-OH (Ac-K(5FAM)GTPCTYKY[Nle]LAE[Nle][dC]-OH; cysteine pairing not given here) [Sequence 9]”, 85.8%. On the same count and under the same terms, under “Ac-Lys(5FAM)-Gly-Thr-Pro-c(^DCys-Thr-Tyr-Lys-Tyr-Nle-Leu-Ala-Glu-Nle-Cys)-OH (KGTPCTYKYXLAEXC; N-acetyl, Lys(5FAM), cyclic, D-residue, Nle residues; CROSSLNK 5..15: note = methylene thioactal (-S-CH2-S-); SITE 5: note = D-Cys; SITE 10: note = Nle; SITE 14: note = Nle; MOD_RES 1: note = N-acetyllysine labeled with 5-FAM) [Sequence 7]” stands 87.6%.

B1: SEQUENCE 45 (peptide)
peptide: Ac-K(Biotin)GTPCTYKY[Nle]LAE[Nle]C
modifications: cysteine pairing not given here
In the case of B1, in assay [2], the EC50 came to 10.5 nM.

B2: SEQUENCE 46 (peptide)
peptide: Ac-K(Biotin)GTPCTYKY[Nle]LAE[Nle]C
modifications: disulfide 5-15
In turn, B2 had an EC50 in assay [2] of 11 nM.

B3: SEQUENCE 9 (peptide)
peptide: Ac-K(5FAM)GTPCTYKY[Nle]LAE[Nle][dC]
modifications: cysteine pairing not given here
As for B3, the inhibitory activity (%) in assay [3] was determined as 85.8%.

B4: SEQUENCE 6 (peptide)
peptide: Ac-K(5FAM)GTP[dC]TYKY[Nle]LAE[Nle]C
modifications: disulfide 5-15
The molecule B4 displayed an inhibitory activity (%) in assay [3] of 91.9%.

B5: SEQUENCE 43 (peptide)
peptide: Ac-K(5FAM)GTPCTYKY[Nle]LAE[Nle]PC
modifications: disulfide 5-16
In turn, B5 returned an inhibitory activity (%) in assay [3] of 83.5%.

B6: SEQUENCE 1 (peptide)
peptide: Ac-K(5FAM)GTPCTYKY[Nle]LAE[Nle]C
modifications: cysteine pairing not given here
For the molecule B6, the inhibitory activity (%) in assay [3] worked out at 70.7%.

B7: SEQUENCE 7 (peptide)
peptide: Ac-K(5FAM)GTP[dC]TYKY[Nle]LAE[Nle]C
modifications: bridge 5-15 via S‑C‑S (methylene)
In assay [3], B7 came in with an inhibitory activity (%) of 87.6%.

B8: SEQUENCE 19 (peptide)
peptide: Ac-K(5FAM)GTPC[Hyp]YKY[Nle]LAE[Nle]C
modifications: disulfide 5-15
Take B8: the inhibitory activity (%) in assay [3] came out at 79.1%.

B9: SEQUENCE 34 (peptide)
peptide: Ac-K(5FAM)GTPCTYKY[Nle]L[Aib]E[Nle]C
modifications: disulfide 5-15
Take B9: the inhibitory activity (%) in assay [3] is 82%.

B10: SEQUENCE 24 (peptide)
peptide: Ac-K(5FAM)GTPCTYRY[Nle]LAE[Nle]C
modifications: disulfide 5-15
B10: the inhibitory activity (%) in assay [3] was determined as 77.4%.
